Results taken from the nanobody polyreactivity screen of Harvey et al. (2022).

Test: yeast display, Sf9 membrane polyspecificity reagent, FACS + sequencing; frameworks hold sequencing errors
Outline: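 After 36–48 hours of galactose induction, yeast (Saccharomyces cerevisiae BJ5465) displaying a synthetic nanobody library were stained at 4 °C for 1 hour with 10% biotinylated, detergent-solubilized Sf9 membrane reagent. Streptavidin microbeads enriched the stained cells before FACS sorting into low and high (top ~1%) gates on anti-HA and streptavidin fluorescence. Each clone's polyreactivity label reflects its gate of origin.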

Question: Which “polyreactivity (PSR sort gate)” value does the source give for “QVQLVESGGGLVQAGGSLLLSCAASGLIFSGYAMGWYRQAPGKERELVAAISRTVGTTYYADSVKGRFTISRDNGKNPVYLQMNSLKPEDTAVYYCAARGRATLYDYWGQGTQVTVSS” here?
Answer: high polyreactivity

Question: With “QVQLVESGGGLVQAGGSLRLSCAASGSIFEFNTMGWYRQAPGKERELVAAISSSGGRTYYADSVKGRFTISRDNAKNTVYLQMNSLKPEDTAVYYCNAVSYYGARYDYWGQGTQVTVSS” as the sequence, how does the “polyreactivity (PSR sort gate)” value read?
Answer: high polyreactivity

Question: Which “polyreactivity (PSR sort gate)” value does the source give for “QVQLVESGGGLVQAGGSLRLSCAASGRIFKNYAMGWYRQAPGKERELVAAITWSGGRTYYADSVKGRFTISRDNAKNTVYLQMNSLKPEDTAVYYCATAARRGPTSIEPFGYGSWGQGTQVTVSS” here?
Answer: high polyreactivity

Question: With “QVQLVESGGGLVQAGGSLRLSCAASGRTFALNAMGWYRQAPGKERELVAAISWSSGRTYYADSVKGRFTISRDNAKNTDYLKMNSLKPEDSAVYYCAALVAHKGDYWGQGTQVTVSS” as the sequence, how does the “polyreactivity (PSR sort gate)” value read?
Answer: high polyreactivity

Question: With “QVQLVESGGGLVQAGGSLRLSCAASGSIFRKYAMGWYRQATGKERELVAAIRSSGGSTYYADSVKGRFTISRDNAKNTVYLQMNSLKPEDTSVYYWAATTGEHEDFRGQGTQVTVSS” as the sequence, how does the “polyreactivity (PSR sort gate)” value read?
Answer: high polyreactivity

Question: For “QVQLVESGGGLVQAGGSLRLSCAASGFIFYIYAMGWYRQAPGKERELVAAISWNGGSTYYADSVKGRFTISRDNAKNTVYLLMNSLKPEDTAVYYCATVARYRYGTGRFDYWGQGTQVTVSS”, which “polyreactivity (PSR sort gate)” value is on record?
Answer: high polyreactivity

Question: With “QVQLVDSGGGLVQAGGSLRLSCASSGRIFSEYAMGWYRQAPGKERELVAAISRRGGRTYYADSVKGRFTISRDNAKNTVYLQMNSLKPEDTAVYYCAADHGDPGGYDYWGQGTQVTVSS” as the sequence, how does the “polyreactivity (PSR sort gate)” value read?
Answer: high polyreactivity

Question: Which “polyreactivity (PSR sort gate)” value does the source give for “QVQLVESGGGLVQAGGSLRLSCAASGLTFYWYAMGWYRQAPGKERELVAAITSTGSTYYADSVKGRFTISRDNAKNTVYLQMNSLKPEDTAVYYCNADFPANWGWDYDYWGQGTQVTVSS” here?
Answer: low polyreactivity

Question: Which “polyreactivity (PSR sort gate)” value does the source give for “QVQLVESGGGLVQAGGSLRLSCAASGFIFSRYAMGWYRQAPGKERELVAAISRGGSTYYADYVKGRFTISRDNAKNTVYLQMNSLKPEDTAVYYCAVRQIVRYYYWGQGTQVTVSS” here?
Answer: high polyreactivity

Question: For “QVQLVESGGGLVQAGGSLRLICAASGRIFDKNAMGWYRQAPGKERELVAAINRSGGRTYYADSVKGRFTISRDNAKNTVYLQMNSLKPEDTAVYYCAADTQGSRYDYWGQGTQVTVSS”, which “polyreactivity (PSR sort gate)” value is on record?
Answer: high polyreactivity

Question: With “QVQLVESGGGLVQAGGSLRLSCAASGSIFESYAMGWYRQAPGKERELVAAITSSGDSTYYADSVKGRFTISRDNAKNTVYLQMNSLKPEDTAVDYCAKRVPTYISTADWGSRYDYWGQGTQVTVSS” as the sequence, how does the “polyreactivity (PSR sort gate)” value read?
Answer: low polyreactivity

Question: For “QVQLEESGGGLVKARGSLRLSCAASGRTFNFYYMGWYRQAPGKERELVAAISSSGGSTYYADSVKGRFTISRDTAKYTVYLQMISLIPEDTAVYYCAKGPLYSLCFQHDAPYRYGYWGQATQVTVSS”, which “polyreactivity (PSR sort gate)” value is on record?
Answer: low polyreactivity

Question: With “QVQLVESGGGLVQAGGSLRLSCAASGFTFARYAMGWYRQAPGNERELVAAITRRGGSTYYADSVKGRFTISRDNAKDTVYLQMNSLKPEDTAVYYCAADSSSGSDYWGQGTQVTVSS” as the sequence, how does the “polyreactivity (PSR sort gate)” value read?
Answer: high polyreactivity

Question: With “QVQLVESGGGLVQAGGSLRLSCAASGRTLTYNVMGWYRPAPGKERELVASISATGGSTYYADSVKGRFTISRDNAKNTVYLQMNSLKPEDTAVYSCAARGYRYHYATRYDYWGQATQVTVSS” as the sequence, how does the “polyreactivity (PSR sort gate)” value read?
Answer: high polyreactivity

Question: Which “polyreactivity (PSR sort gate)” value does the source give for “QVQLQESGGGLVLAGGSLRLNCAESGYISWSFTMGWYRKPTGKEREFVAGITYGGITYYADSVKGRFTISRDNAKNTVYLEMNRLKPEDTAVYYCAAPQSYPYVYVYWGQGTEVTVSS” here?
Answer: high polyreactivity

Question: Which “polyreactivity (PSR sort gate)” value does the source give for “QVQLVESGGGLVQAGGSLRLSCAASGSTFQPNAMGWYRQAPGKERELVAAITGGDNTNYADSVKGRFTISRDNAKNTVYLQMNSLKPEDTAVYYCAAGGLGSRWYVGYDYWGQGTQVTVSS” here?
Answer: low polyreactivity

Question: With “QVQLVESGGGLVQAGGSLRLSCAASGSIFDVYTMGWYRQAPGKERELVAAINTGGGSTYYADSVKGRFTISRDNAKNTVYLQMNSLKPEDTAVYFCAASVYHYGPLYYWGQGTQVTVSS” as the sequence, how does the “polyreactivity (PSR sort gate)” value read?
Answer: low polyreactivity

Question: For “QVQLVESGGGLVQAGGSLRLSCAASGSIFTLYSMGWYRQAPGKERELVATINWSGGSTSYADSVKGRFTISRDNAKYTVYLQMNSLKADDTAVYYCAADYYFWHGTGYDYWGQGTQVNVSS”, which “polyreactivity (PSR sort gate)” value is on record?
Answer: low polyreactivity

Question: For “QVQLVESGGGLVQAGGSLRLSCAASGSIFLDNAKGWYRQAPGKERELVSAISSGGNTNYADSVKGRFTISRDNAKNTVSLQMNSLKPEDTAVYYCAADPTKWHYYVPRYYYWGQGTQVTVSS”, which “polyreactivity (PSR sort gate)” value is on record?
Answer: low polyreactivity

Question: Which “polyreactivity (PSR sort gate)” value does the source give for “QVQLVESGGGLVQAGGSLRLSCAASGSIFLLNAMGWYRQAPGKERELVARIRINGGSTYYADSVKGRFTISRDNAKNTVYLKMNSLKPEDTAVYYCAADDTGPYSNWYDYWGQGTQVTVSS” here?
Answer: low polyreactivity

Question: With “QVQLVESGGGLVQAGGSLRLSCAASGSTIYKYAMGWYRQAPGKERELVAAISGSGGRTYYADSVKGRFTISRDNAKNTVYLQMNSLKPEDTAVYYCAARPKGGPWEHDYWGQGTQVTVSS” as the sequence, how does the “polyreactivity (PSR sort gate)” value read?
Answer: high polyreactivity

Question: Which “polyreactivity (PSR sort gate)” value does the source give for “QVQLVESGGGLVQAGGSLRLSCAASGIIFYDYAMGWYRQAPGKERELVASISWSSGSTYYADSVKGRFTISRDNAKNTVYLQMNSLKPEDTAVYYCAADGYPLQLYNYWGQGTQVTVSS” here?
Answer: low polyreactivity
